Values joined by “and” are separate entries in the source; they are usually repeats but may differ in a detail not shown here. Equal values may be shown once. Ends that are not written are not given here.
Columns and labels:
mouse GPVI (mouse) = mouse GPVI (mouse) (UniProt P0C191); assay: cell-based or functional assay
GPVI peptide 118 (human) [1] = biological target: T1, GPVI peptide 118 (human); assay: PepSpot control incubation
T1 sequence (peptide, N-terminus acetylated): TNKVFTTETSRSI

GPVI peptide 54 [2] = biological target: T2, GPVI peptide 54 (human); assay: PepSpot control incubation
T2 peptide: Ac-ATGVFAKPSLSAQ

GPVI peptide 131 (human) [3] = biological target: T3, GPVI peptide 131 (human); assay: PepSpot control incubation
T3 sequence (peptide, N-terminus acetylated): ARQYYTKGNGGRE

GPVI peptide 53 (human) [4] = biological target: T4, GPVI peptide 53 (human); assay: PepSpot control incubation
T4 sequence (peptide, N-terminus acetylated): LVATGVFAKPSLS

GPVI peptide 7 (human) [5] = biological target: T5, GPVI peptide 7 (human); assay: PepSpot control incubation
T5 sequence (peptide, N-terminus acetylated): LCLGRVPAQSGPL

GPVI peptide 117 (human) [6] = biological target: T6, GPVI peptide 117 (human); assay: PepSpot control incubation
T6 sequence (peptide, N-terminus acetylated): SFTNKVFTTETSR

GPVI peptide 32 (human) [7] = biological target: T7, GPVI peptide 32 (human); assay: PepSpot control incubation
T7 sequence (peptide, N-terminus acetylated): SSSRYQDQAVLFI

GPVI peptide 37 [8] = biological target: T8, GPVI peptide 37 (human); assay: PepSpot control incubation
T8 peptide: Ac-LFIPAMKRSLAGR

GPVI peptide 33 (human) [9] = biological target: T9, GPVI peptide 33 (human); assay: PepSpot control incubation
T9 sequence (peptide, N-terminus acetylated): SRYQDQAVLFIPA

GPVI peptide 130 (human) [10] = biological target: T10, GPVI peptide 130 (human); assay: PepSpot control incubation
T10 sequence (peptide, N-terminus acetylated): GPARQYYTKGNGG

GPVI peptide 11 [11] = biological target: T11, GPVI peptide 11 (human); assay: PepSpot control incubation
T11 peptide: Ac-QSGPLPKPSLQAL

[12] = biological target: collagen (type I bovine; BD Bioscience) (bovine) (UniProt P02453); assay: ELISA, collagen type 1 coated plates, Lineweaver-Burk plot
Fc-GPVI-nt (human) = assay: competition ELISA, immobilized collagen
GPVI peptide 54 [13] = biological target: T2, GPVI peptide 54; assay: PepSpot array
Method: (§1) The peptides were synthesized on a cellulose membrane in a stepwise manner resulting in a defined arrangement (peptide array) and are covalently bound to the cellulose membrane. Binding assays were performed directly on the peptide array. In general an antigen peptide array is incubated with blocking buffer for several hours to reduce non-specific binding of proteins or antibodies. It follows the incubation with a primary (antigen peptide-binding) antibody in blocking buffer and an incubation with a horseradish peroxidase (HRP)-labelled secondary antibody, which binds selectively the primary antibody. Alternatively a HRP-labelled primary antibody in blocking buffer can be used.
(§2) A short T(Tween)-TBS-buffer washing directly after the incubation of the antigen peptide array with the secondary protein or antibody or the HRP-labelled primary antibody followed by the first chemiluminescence experiment is made to get an first overview which antigen peptides do bind the primary antibody. Several buffer washing steps follow (T-TBS- and TBS-buffer) to reduce false positive binding (unspecific antibody binding to the cellulose membrane itself). After these washing steps the final chemiluminescence analysis is performed. The data were analysed with an imaging system showing the signal intensity (Light units, LU) as single measurements for each peptide. In order to evaluate non-specific binding of secondary antibodies, incubations using the secondary antibody have to be performed in the absence of the primary antibody as control incubation.

GPVI peptide 37 [14] = biological target: T8, GPVI peptide 37; assay: PepSpot array
Method: as §1, §2

GPVI peptide 11 [15] = biological target: T11, GPVI peptide 11; assay: PepSpot array
Method: as §1, §2

GPVI peptide 118 (human) [16] = biological target: T1, GPVI peptide 118 (human); assay: PepSpot array
GPVI peptide 131 (human) [17] = biological target: T3, GPVI peptide 131 (human); assay: PepSpot array
GPVI peptide 53 (human) [18] = biological target: T4, GPVI peptide 53 (human); assay: PepSpot array
GPVI peptide 7 (human) [19] = biological target: T5, GPVI peptide 7 (human); assay: PepSpot array
GPVI peptide 117 (human) [20] = biological target: T6, GPVI peptide 117 (human); assay: PepSpot array
GPVI peptide 32 (human) [21] = biological target: T7, GPVI peptide 32 (human); assay: PepSpot array
GPVI peptide 33 (human) [22] = biological target: T9, GPVI peptide 33 (human); assay: PepSpot array
GPVI peptide 130 (human) [23] = biological target: T10, GPVI peptide 130 (human); assay: PepSpot array

Chain of mouse GPVI (mouse) (P0C191 22-313): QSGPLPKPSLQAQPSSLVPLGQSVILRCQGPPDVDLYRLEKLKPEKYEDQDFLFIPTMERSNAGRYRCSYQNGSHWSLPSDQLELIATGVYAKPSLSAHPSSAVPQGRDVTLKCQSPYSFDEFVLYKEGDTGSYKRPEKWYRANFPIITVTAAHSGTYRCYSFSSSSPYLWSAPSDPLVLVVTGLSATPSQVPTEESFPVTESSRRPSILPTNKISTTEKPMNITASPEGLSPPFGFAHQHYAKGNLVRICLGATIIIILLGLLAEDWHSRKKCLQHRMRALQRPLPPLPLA
Chain of collagen (type I bovine; BD Bioscience) (bovine) (P02453 162-1217, chain 1 of 2): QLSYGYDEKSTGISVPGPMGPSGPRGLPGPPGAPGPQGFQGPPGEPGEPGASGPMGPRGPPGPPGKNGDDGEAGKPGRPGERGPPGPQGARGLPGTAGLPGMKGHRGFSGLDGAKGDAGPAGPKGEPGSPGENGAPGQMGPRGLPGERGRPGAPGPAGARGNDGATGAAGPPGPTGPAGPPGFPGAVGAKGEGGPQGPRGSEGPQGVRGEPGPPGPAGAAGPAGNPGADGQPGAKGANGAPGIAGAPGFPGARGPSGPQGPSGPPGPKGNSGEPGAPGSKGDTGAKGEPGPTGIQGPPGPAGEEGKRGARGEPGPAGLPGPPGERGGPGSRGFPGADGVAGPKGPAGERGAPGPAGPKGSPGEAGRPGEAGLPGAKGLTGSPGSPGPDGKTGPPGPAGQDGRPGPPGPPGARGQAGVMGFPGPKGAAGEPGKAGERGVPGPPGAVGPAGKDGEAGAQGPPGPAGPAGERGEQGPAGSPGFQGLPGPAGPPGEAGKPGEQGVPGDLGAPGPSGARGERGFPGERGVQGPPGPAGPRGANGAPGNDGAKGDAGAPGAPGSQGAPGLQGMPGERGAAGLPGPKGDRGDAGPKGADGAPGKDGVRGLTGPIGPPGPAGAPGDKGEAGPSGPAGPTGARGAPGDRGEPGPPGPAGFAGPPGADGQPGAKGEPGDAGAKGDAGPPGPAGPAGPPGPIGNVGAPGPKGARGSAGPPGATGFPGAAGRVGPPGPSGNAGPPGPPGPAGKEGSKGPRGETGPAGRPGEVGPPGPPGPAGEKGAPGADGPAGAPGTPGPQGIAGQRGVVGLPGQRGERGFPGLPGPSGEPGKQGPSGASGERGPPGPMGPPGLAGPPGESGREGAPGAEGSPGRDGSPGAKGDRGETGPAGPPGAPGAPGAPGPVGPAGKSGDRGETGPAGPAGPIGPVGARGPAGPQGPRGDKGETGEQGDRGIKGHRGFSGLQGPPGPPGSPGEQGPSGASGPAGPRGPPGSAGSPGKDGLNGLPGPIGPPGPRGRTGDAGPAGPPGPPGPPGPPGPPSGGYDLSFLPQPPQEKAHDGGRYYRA
Chain of collagen (type I bovine; BD Bioscience) (bovine) (P02465 80-1117, chain 2 of 2, further chain): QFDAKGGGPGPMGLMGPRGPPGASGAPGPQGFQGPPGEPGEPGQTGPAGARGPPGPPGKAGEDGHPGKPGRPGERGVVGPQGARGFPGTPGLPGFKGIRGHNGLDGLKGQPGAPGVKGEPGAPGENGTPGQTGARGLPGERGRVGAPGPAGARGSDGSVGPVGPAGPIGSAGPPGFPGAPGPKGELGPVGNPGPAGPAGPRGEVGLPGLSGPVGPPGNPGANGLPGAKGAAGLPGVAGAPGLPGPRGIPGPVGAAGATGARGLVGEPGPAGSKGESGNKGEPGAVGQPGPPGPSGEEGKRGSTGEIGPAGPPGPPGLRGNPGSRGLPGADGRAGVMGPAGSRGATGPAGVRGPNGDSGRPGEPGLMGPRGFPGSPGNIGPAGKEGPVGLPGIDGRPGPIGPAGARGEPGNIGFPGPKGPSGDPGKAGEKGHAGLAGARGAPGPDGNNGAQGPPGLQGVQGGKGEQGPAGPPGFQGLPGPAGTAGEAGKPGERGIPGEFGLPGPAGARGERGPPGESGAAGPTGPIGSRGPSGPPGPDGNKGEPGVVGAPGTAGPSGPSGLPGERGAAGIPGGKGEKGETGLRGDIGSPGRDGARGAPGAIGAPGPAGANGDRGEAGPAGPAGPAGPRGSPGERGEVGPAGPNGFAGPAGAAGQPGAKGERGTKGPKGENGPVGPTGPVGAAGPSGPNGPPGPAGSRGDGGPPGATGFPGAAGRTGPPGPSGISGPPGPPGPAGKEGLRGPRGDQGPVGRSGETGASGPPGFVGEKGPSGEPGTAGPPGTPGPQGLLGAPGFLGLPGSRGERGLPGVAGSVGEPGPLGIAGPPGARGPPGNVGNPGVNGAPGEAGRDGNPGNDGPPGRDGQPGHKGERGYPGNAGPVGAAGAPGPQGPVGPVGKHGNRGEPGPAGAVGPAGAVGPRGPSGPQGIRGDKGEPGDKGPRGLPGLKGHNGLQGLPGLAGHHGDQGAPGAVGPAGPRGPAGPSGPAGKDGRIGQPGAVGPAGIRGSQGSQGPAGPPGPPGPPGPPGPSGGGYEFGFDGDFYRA
Chain of Fc-GPVI-nt (human) (chain, as listed by the source limits assumed): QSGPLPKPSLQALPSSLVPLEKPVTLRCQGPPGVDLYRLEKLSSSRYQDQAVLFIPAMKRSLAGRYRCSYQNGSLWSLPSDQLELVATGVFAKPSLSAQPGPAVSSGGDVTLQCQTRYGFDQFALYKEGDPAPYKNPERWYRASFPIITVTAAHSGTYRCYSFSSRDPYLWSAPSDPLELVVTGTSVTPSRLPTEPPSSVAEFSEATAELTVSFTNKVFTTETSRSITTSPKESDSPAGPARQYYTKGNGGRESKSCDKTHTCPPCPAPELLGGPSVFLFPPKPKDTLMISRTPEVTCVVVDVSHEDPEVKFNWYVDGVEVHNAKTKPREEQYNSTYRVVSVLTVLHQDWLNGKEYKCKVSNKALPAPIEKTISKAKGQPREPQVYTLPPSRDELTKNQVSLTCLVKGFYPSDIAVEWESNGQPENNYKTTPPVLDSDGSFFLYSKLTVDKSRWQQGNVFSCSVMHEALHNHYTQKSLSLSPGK

JAQ1 (antibody)
ATP release, mouse platelet-rich plasma (mouse GPVI (mouse)): 1.09 nM ATP
platelet aggregation after stimulation with 2 µg collagen/ml, mouse platelet-rich plasma (mouse GPVI (mouse)): 2% and 1.5%

anti-rat-HRP (Sigma A9037) (antibody)
LU (Light Units) (GPVI peptide 118 (human) [1]): 354 LU
LU (Light Units) (GPVI peptide 54 [2]): 190 LU
LU (Light Units) (GPVI peptide 131 (human) [3]): 389 LU
LU (Light Units) (GPVI peptide 53 (human) [4]): 240 LU
LU (Light Units) (GPVI peptide 7 (human) [5]): 239 LU
LU (Light Units) (GPVI peptide 117 (human) [6]): 377 LU
LU (Light Units) (GPVI peptide 32 (human) [7]): 240 LU
LU (Light Units) (GPVI peptide 37 [8]): 280 LU
LU (Light Units) (GPVI peptide 33 (human) [9]): 204 LU
LU (Light Units) (GPVI peptide 130 (human) [10]): 343 LU
LU (Light Units) (GPVI peptide 11 [11]): 212 LU

monomeric GPVI fusion protein (Fc fusion)
fold lower affinity compared to dimeric Fc-GPVI-nt [12]: 10 fold

soluble collagen (ligand)
concentration required to reduce Fc-GPVI-nt binding to immobilized collagen by more than 50% (Fc-GPVI-nt (human)): 100 µg/mL

B1: monoclonal antibody hGP 5C4 (antibody, V domains shown)
VH: EVKLQESGGGLVQPGRSLKLSCTASGFTFSDYFMSWVRQAPTRGLEWVASISSGGASAYWRDSVKGRFTISRDNAKSALYLQMDSLRSEDTATYFCARGELDFDYWGQGVMVAVSS
VL: ADPNSTLLSASVGDRVTLNCTASQNVYKNLAWYQQKLGEAPRLLLYSANSQTGIPSRFSGSGSGPDFTLTISSLQPEDVASYFCQQYYSGNTFGAGTKLELKR
notes: Monoclonal IgG from Lou/C rats immunized with Fc-GPVI-nt; also called ab 5C4; anti-GPVI mAb 5C4
signal to noise ratio (GPVI peptide 54 [13]): ~4
signal to noise ratio (GPVI peptide 37 [14]): ~4
signal to noise ratio (GPVI peptide 11 [15]): ~20
LU (Light Units) (GPVI peptide 118 (human) [16]): 336 LU
LU (Light Units) (GPVI peptide 131 (human) [17]): 289 LU
LU (Light Units) (GPVI peptide 53 (human) [18]): 359 LU
LU (Light Units) (GPVI peptide 7 (human) [19]): 292 LU
LU (Light Units) (GPVI peptide 117 (human) [20]): 472 LU
LU (Light Units) (GPVI peptide 32 (human) [21]): 319 LU
LU (Light Units) (GPVI peptide 33 (human) [22]): 259 LU
LU (Light Units) (GPVI peptide 130 (human) [23]): 255 LU
